According to patent US5508261A, “Analogs of glycoprotein hormones having altered receptor binding specificity and activity and methods for preparing and using same” (University of Medicine & Dentistry of New Jersey, priority 1995, dated 1996):

Experiments:
[1] = test system: bovine testes FSH receptors; assay: Inhibition of 125I-hFSH binding to bovine testes tissue homogenates (radioligand receptor assay); details: concentration of recombinant hFSH for 50% inhibition of 125I-hFSH binding divided by that of analog
Excerpt: (§1) The term "N.D." means not determined because concentrations of analog were not employed high enough to detect 50% inhibition.
(§2) An aliquot of the ligation mixture was taken and used to transform DH5-alpha strain E. coli. (obtained from Bethesda Research Laboratories, Gaithersburg, Md.). Plasmid DNAs from ampicillin-resistant DH5-alpha clones were screened by digestion with BglII (which is unique to vectors containing the cassette) and EcoRI (which cuts in the vector). Positive clones were identified by the presence of two fragments (approximately 0.8 Kbp and 2.9 Kbp). […] After the DNA was subjected to a dideoxy sequencing procedure to confirm that it encoded "GT" (Table 1), the plasmid DNA was then cotransfected into COS-7 cells (obtained from the American Type Culture Collection) along with pSVL-hCG-alpha, a pSVL-based plasmid encoding the human glycoprotein hormone alpha-subunit (10, 21), using a DEAE-dextran procedure (10).

[2] = test system: rat luteal ovarian LH receptors; assay: Inhibition of 125I-hCG binding to rat corpora luteal LH receptors (radioligand receptor assay); details: concentration of recombinant hCG for 50% inhibition of 125I-hCG binding divided by that of analog
Excerpt: as §1, §2

B1: eCG: equine gonadotropin control (text calls the control eLH, equine lutropin) (protein)
chain: SRGPLRPLCRPINATLAAEKEACPICITFTTSICAGYCPSMVRVMPAALPAIPQPVCTYRELRFASIRLPGCPPGVDPMVSFPVALSCHCGPCQIKTTDCGVFRDQPLACAPQASSSSKDPPSQPLTSTSTPTPGASRRSSHPLPIKTS
Activity at FSH RECEPTORS relative to that of hFSH [1]: 0.18 | Activity at LH RECEPTORS relative to that of hCG [2]: 0.53
